Experimental data from US10040826.
pKd: −log10 of the molar value.

Columns and labels:
A244 Δ11 gp120 (HIV-1) [1] = test: SPR; 17b flowed over A244gD- d11 (batch 110608) held on immobilised A32 (A32-triggered Env)
A244 Δ11 gp120 (HIV-1) [2] = test: SPR; 17b flowed over A244gD- d11 (batch 110608) held on immobilised sCD4 (sCD4-triggered Env)
A244 Δ11 gp120 (HIV-1) [3] = test: SPR; 17b flowed over A244gD- d11 (batch 110608) held on immobilised T8 (T8-triggered Env); response axis in RU
A244 Δ11 gp120 (HIV-1) [4] = test: SPR; 17b flowed over A244gD- d11 (batch 110608) held on immobilised A32 (A32-triggered Env); response axis in RU
A244 Δ11 gp120 (HIV-1) [5] = test: SPR; 17b flowed over A244gD- d11 (batch 110608) held on immobilised sCD4 (sCD4-triggered Env); response axis in RU
A244 Δ11 gp120 (HIV-1) [6] = test: SPR; A244 gp120 gD- Δ11 293T monomer batch 110608 flowed over immobilised T8; ratio to ConS gp140
A244 Δ11 gp120 (HIV-1) [7] = test: SPR; A244 gp120 gD- Δ11 293T monomer batch 110608 flowed over immobilised T8; response axis in RU
[8] = biological target: A244 gDΔ11 gp120 (Herpes simplex virus; HIV-1); test: SPR
A244 Δ11 gp120 (HIV-1) [9] = test: SPR
[10] = biological target: A244 gDΔ11 gp120 (Herpes simplex virus; HIV-1); test: SPR, mAb captured on anti-Fc surface, monomeric gp120 as analyte
[11] = biological target: A244 gp120 (no modifications) (HIV-1); test: as above
A244 Δ11 gp120 (HIV-1) [12] = test: as above
[13] = biological target: MN gDΔ11 gp120 (Herpes simplex virus; HIV-1); test: Kd table; row B.MN gp120, column CH01 gD+; method not given
[14] = biological target: MN gp120 (no modifications) (HIV-1); test: Kd table; row B.MN gp120, column CH01 gD-; method not given
[15] = biological target: A244 gDΔ11 gp120 (Herpes simplex virus; HIV-1); test: Kd table; row AE.A244 gp120, column CH01 gD+; method not given
[16] = biological target: A244 gp120 (no modifications) (HIV-1); test: Kd table; row AE.A244 gp120, column CH01 gD-; method not given
[17] = biological target: A244 gp120 (no modifications) (HIV-1); test: SPR titration, binding to CH01 mAb; A244 gDneg at [10] to [100], unit inferred
A244 Δ11 gp120 (HIV-1) [18] = test: SPR titration, binding to CH01 mAb; A244 gDneg D11 at [10] to [100], unit inferred
[19] = biological target: A244 gDΔ11 gp120 (Herpes simplex virus; HIV-1); test: SPR titration, binding to CH01 mAb; A244 gD+ 293Tmon at [5] to [100], unit inferred
[20] = biological target: A244 gp120 (no modifications) (HIV-1); test: SPR titration, binding to CH01 mAb; A244 gDneg at [10], [25], [50], [75], [100], unit inferred
A244 Δ11 gp120 (HIV-1) [21] = test: SPR titration, binding to CH01 mAb; A244 gDneg D11 at [10], [25], [50], [75], [100], unit inferred
[22] = biological target: A244 gDΔ11 gp120 (Herpes simplex virus; HIV-1); test: SPR titration, binding to CH01 mAb; A244 gD+ 293Tmon at [5], [10], [25], [50], [100], unit inferred
A244 Δ11 gp120 (HIV-1) [23] = test: SPR blocking on immobilized A244 Δ11 gp120, mAb injected to near saturation, then RV144 vaccinee IgG; against 7B2 control
[24] = biological target: A244 gDΔ11 gp120 (Herpes simplex virus; HIV-1); test: SPR titration, binding to CH01 mAb; A244 gD+ 293Tmon at [5] to [100], unit inferred; footnote: '* Fit deviation, need to lower Ag density'
[25] = biological target: A244 gp120 (no modifications) (HIV-1); test: SPR titration, binding to CH01 mAb; A244 gDneg at [10] to [100], unit inferred; the sheet prints a slash where a decimal point is meant (kd/ka as printed gives 3.1 µM)
[26] = biological target: MN gDΔ11 gp120 (Herpes simplex virus; HIV-1); test: Kd table; row B.MN gp120, column PG9 gD+; method not given
[27] = biological target: MN gp120 (no modifications) (HIV-1); test: Kd table; row B.MN gp120, column PG9 gD-; method not given
[28] = biological target: A244 gDΔ11 gp120 (Herpes simplex virus; HIV-1); test: Kd table; row AE.A244 gp120, column PG9 gD+; method not given
[29] = biological target: A244 gp120 (no modifications) (HIV-1); test: Kd table; row AE.A244 gp120, column PG9 gD-; method not given
[30] = biological target: 92TH023 gDΔ11 gp120 (Herpes simplex virus; HIV-1); test: Kd table; row AE.92TH023 gp120, column PG9 gD+; method not given
A244 Δ11 gp120 (HIV-1) [31] = test: SPR titration, binding to PG9 mAb (IAVI PG9); A244 gDneg D11 at [10] to [100], unit inferred
[32] = biological target: A244 gDΔ11 gp120 (Herpes simplex virus; HIV-1); test: SPR titration, binding to PG9 mAb (IAVI PG9); A244 gD+293Tmon at [10] to [40], unit inferred
[33] = biological target: A244 gDΔ11 gp120 (Herpes simplex virus; HIV-1); test: SPR titration, binding to PG9 mAb (IAVI PG9); A244 gD+293Tmon at [10], [20], [30], [40], unit inferred
A244 Δ11 gp120 (HIV-1) [34] = test: SPR titration, binding to PG9 mAb (IAVI PG9); A244 gDneg D11 at [10], [25], [50], [75], [100], unit inferred
[35] = biological target: MN-rgp120 (RV144 vaccine immunogen) (Herpes simplex virus; HIV-1); test: SPR, mAb captured on anti-Fc surface, gp120 as analyte (FIG. 28)
[36] = biological target: MN-rgp120 (RV144 vaccine immunogen) (Herpes simplex virus; HIV-1); test: SPR; 19b captured on anti-Fc surface, RV144 MN-rgp120 injected at 0.5-5 µg/mL; fitted curves
[37] = biological target: A244-rgp120 (RV144 vaccine immunogen) (Herpes simplex virus; HIV-1); test: SPR; 19b captured on anti-Fc surface, RV144 A244-rgp120 injected at 0.5-5 µg/mL; fitted curves [lower row]
[38] = biological target: A244 gp120 (no modifications) (HIV-1); test: SPR titration, binding to CH03 mAb; A244 gDneg at [10] to [100], unit inferred
A244 Δ11 gp120 (HIV-1) [39] = test: SPR titration, binding to CH03 mAb; A244 gDneg D11 at [10] to [100], unit inferred
A244 Δ11 gp120 (HIV-1) [40] = test: SPR titration, binding to CH03 mAb; A244 gDneg D11 at [10], [25], [50], [75], [100], unit inferred

Substance: CCR5 receptor gp120 binding site mAb 17b (antibody)
- 17b binding ratio (A244 Δ11 gp120 (HIV-1) [1]): 0.327
- 17b binding ratio (A244 Δ11 gp120 (HIV-1) [2]): 0.316
- Req (A244 Δ11 gp120 (HIV-1) [3]): -169
- Req (A244 Δ11 gp120 (HIV-1) [4]): 529
- Req (A244 Δ11 gp120 (HIV-1) [5]): 166

Substance: T8 (C1 mAb) (antibody)
- Relative Binding Env/ConS gp140 (A244 Δ11 gp120 (HIV-1) [6]): 2.88
- Req (A244 Δ11 gp120 (HIV-1) [7]): 1250

Substance: V2 mAb 830A (antibody)
- fold more avid than to unmodified A244 gp120 [8]: 5 fold
- fold more avid than to unmodified A244 gp120 (A244 Δ11 gp120 (HIV-1) [9]): 5 fold
- pKd [10]: 8.77
- koff [10]: 7e-05 s⁻¹
- kon [10]: 41100 M⁻¹ s⁻¹
- pKd [11]: 7.99
- koff [11]: 0.00022 s⁻¹
- kon [11]: 21800 M⁻¹ s⁻¹
- pKd (A244 Δ11 gp120 (HIV-1) [12]): 8.81
- koff (A244 Δ11 gp120 (HIV-1) [12]): 8.8e-05 s⁻¹
- kon (A244 Δ11 gp120 (HIV-1) [12]): 59900 M⁻¹ s⁻¹

Substance: V2V3 bnAb CH01 (antibody)
- fold faster association rate than with unmodified gp120 [8]: 10 fold
- fold higher affinity than for unmodified A244 gp120 [8]: 5 fold
- fold faster association rate than with unmodified gp120 (A244 Δ11 gp120 (HIV-1) [9]): 10 fold
- fold higher affinity than for unmodified A244 gp120 (A244 Δ11 gp120 (HIV-1) [9]): 5 fold
- pKd [10]: 6.56
- koff [10]: 0.0099 s⁻¹
- kon [10]: 37200 M⁻¹ s⁻¹
- pKd [11]: 5.79
- koff [11]: 0.00438 s⁻¹
- kon [11]: 3730 M⁻¹ s⁻¹
- pKd (A244 Δ11 gp120 (HIV-1) [12]): 6.50
- koff (A244 Δ11 gp120 (HIV-1) [12]): 0.0156 s⁻¹
- kon (A244 Δ11 gp120 (HIV-1) [12]): 49000 M⁻¹ s⁻¹
- pKd [13]: 6.54
- pKd [14]: 6.34
- pKd [15]: 6.70
- pKd [16]: 5.68
- koff [17]: 0.00237 s⁻¹
- pKd (A244 Δ11 gp120 (HIV-1) [18]): 6.37
- koff (A244 Δ11 gp120 (HIV-1) [18]): 0.0135 s⁻¹
- koff [19]: 0.0028 s⁻¹
- kon [20]: 760 M⁻¹ s⁻¹
- kon (A244 Δ11 gp120 (HIV-1) [21]): 31100 M⁻¹ s⁻¹
- kon [22]: 9800 M⁻¹ s⁻¹
- percent blocking of RV144 vaccinee IgG binding (A244 Δ11 gp120 (HIV-1) [23]): 24.6%
- pKd [24]: 6.54
- pKd [25]: 5.51

Substance: V2V3 bnAb PG9 (antibody)
- fold higher affinity than for unmodified A244 gp120 [8]: 3 fold
- fold higher affinity than for unmodified A244 gp120 (A244 Δ11 gp120 (HIV-1) [9]): 3 fold
- pKd [10]: 7.32
- koff [10]: 0.00055 s⁻¹
- kon [10]: 11500 M⁻¹ s⁻¹
- pKd [11]: 6.74
- koff [11]: 0.0011 s⁻¹
- kon [11]: 5000 M⁻¹ s⁻¹
- pKd (A244 Δ11 gp120 (HIV-1) [12]): 7.28
- koff (A244 Δ11 gp120 (HIV-1) [12]): 0.00057 s⁻¹
- kon (A244 Δ11 gp120 (HIV-1) [12]): 10900 M⁻¹ s⁻¹
- pKd [26]: 6.27
- pKd [27]: 6.46
- pKd [28]: 6.89
- pKd [29]: 5.96
- pKd [30]: 6.67
- pKd (A244 Δ11 gp120 (HIV-1) [31]): 7.05
- koff (A244 Δ11 gp120 (HIV-1) [31]): 0.00102 s⁻¹
- pKd [32]: 7.20
- koff [32]: 0.00105 s⁻¹
- kon [33]: 16800 M⁻¹ s⁻¹
- kon (A244 Δ11 gp120 (HIV-1) [34]): 11500 M⁻¹ s⁻¹

Substance: V3 mAb 19b (antibody)
- pKd [10]: 8.08
- koff [10]: 0.0014 s⁻¹
- kon [10]: 170000 M⁻¹ s⁻¹
- pKd [11]: 7.93
- koff [11]: 0.00154 s⁻¹
- kon [11]: 130000 M⁻¹ s⁻¹
- pKd (A244 Δ11 gp120 (HIV-1) [12]): 8.18
- koff (A244 Δ11 gp120 (HIV-1) [12]): 0.00156 s⁻¹
- kon (A244 Δ11 gp120 (HIV-1) [12]): 239000 M⁻¹ s⁻¹
- fold lower Kd than for A244-rgp120 [35]: 5 fold
- pKd [36]: 8.47
- pKd [37]: 7.82

Substance: VRC01 (CD4 bs mAb) (antibody)
- pKd [10]: 7.80
- koff [10]: 0.00021 s⁻¹
- kon [10]: 13300 M⁻¹ s⁻¹
- pKd [11]: 7.80
- koff [11]: 0.00028 s⁻¹
- kon [11]: 17600 M⁻¹ s⁻¹
- pKd (A244 Δ11 gp120 (HIV-1) [12]): 7.44
- koff (A244 Δ11 gp120 (HIV-1) [12]): 0.00039 s⁻¹
- kon (A244 Δ11 gp120 (HIV-1) [12]): 9700 M⁻¹ s⁻¹

Substance: mAb CH03 (V2,V3 conformational) (antibody)
- pKd [38]: 5.26
- koff [38]: 0.0055 s⁻¹
- pKd (A244 Δ11 gp120 (HIV-1) [39]): 6.21
- koff (A244 Δ11 gp120 (HIV-1) [39]): 0.0167 s⁻¹
- kon (A244 Δ11 gp120 (HIV-1) [40]): 27000 M⁻¹ s⁻¹
